Source: patent US20230050440A1 (Seagen, published 2023)
Substitutions are numbered along the chain they refer to.

T1: human TIGIT expressed on cells (human, UniProt Q495A1 22-244)
T1 construct: HEK 293 cells stably expressing human TIGIT, primary human T cells or Jurkat effector cells; the cell is named under assay; also called Human TIGIT HEK
T1 sequence: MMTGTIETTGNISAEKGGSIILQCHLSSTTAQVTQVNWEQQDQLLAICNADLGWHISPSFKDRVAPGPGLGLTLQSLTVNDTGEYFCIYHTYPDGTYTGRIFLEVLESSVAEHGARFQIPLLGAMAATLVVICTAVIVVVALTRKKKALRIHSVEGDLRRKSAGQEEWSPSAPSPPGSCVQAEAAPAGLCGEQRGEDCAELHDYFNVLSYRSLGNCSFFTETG

T2: monomeric human TIGIT (Sino Biological 10917-H08H) (human, UniProt Q495A1 22-138, biotinylated in the MSD-SET assay)
T2 construct: Bought protein; also called Human TIGIT monomer; Human TIGIT-His; not shown: His tag
T2 sequence: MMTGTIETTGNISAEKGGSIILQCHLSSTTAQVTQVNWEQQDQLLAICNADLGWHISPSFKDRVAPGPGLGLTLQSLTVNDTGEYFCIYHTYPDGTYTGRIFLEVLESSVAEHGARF

T3: recombinant dimeric human TIGIT-Fc (Acro Biosystems TIT-H5254) (human, UniProt Q495A1 22-141)
T3 construct: Bought protein; also called hTIGIT-Fc; not shown: Fc part of the bought fusion protein
T3 sequence: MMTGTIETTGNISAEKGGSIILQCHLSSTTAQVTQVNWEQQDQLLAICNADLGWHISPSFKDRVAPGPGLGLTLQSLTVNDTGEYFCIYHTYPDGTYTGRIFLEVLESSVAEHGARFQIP

T4: murine FcγRIV expressed on CHO cells (mouse, UniProt A0A0B4J1G0 21-249)
T4 construct: also called mCD16 (the murine form of FcγRIVa)
T4 sequence: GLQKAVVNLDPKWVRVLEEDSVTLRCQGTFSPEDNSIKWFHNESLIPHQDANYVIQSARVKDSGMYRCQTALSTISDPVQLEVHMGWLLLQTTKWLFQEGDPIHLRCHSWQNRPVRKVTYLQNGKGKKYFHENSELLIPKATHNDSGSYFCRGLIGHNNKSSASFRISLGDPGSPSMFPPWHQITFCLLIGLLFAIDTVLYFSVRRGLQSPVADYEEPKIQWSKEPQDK

B1: Clone 2 (antibody, V domains shown)
VH: EVQLVESGGGLVQPGGSLRLSCAASGFTFSDHYMDWVRQAPGKGLEWVGRTRNKANSYTTEYAASVKGRFTISRDDSKNSLYLQMNSLKTEDTAVYYCARGQYYYGSSSRGYYYMDVWGQGTTVTVSS
VL: EIVLTQSPGTLSLSPGERATLSCRASQSVSSSYLAWYQQKPGQAPRLLIYGASSRATGIPDRFSGSGSGTDFTLTISRLEPEDFAVYYCQQAVPSPLTFGGGTKVEIK
notes: Fully human IgG produced in yeast; also called anti-TIGIT antibody clone 2
B2: Clone 13 (antibody, IgG1, V domains shown)
VH: QVQLVQSGAEVKKPGSSVKVSCKASGGTFSSYAISWVRQAPGQGLEWMGSIIPIFGTANYAQKFQGRVTITADESTSTAYMELSSLRSEDTAVYYCARGPSEVGAILGYVWFDPWGQGTLVTVSS
VL: not shown
notes: also called anti-TIGIT clone 13; c13 hIgG1
B3: Clone 16 (antibody, V domains shown)
VH: QVQLVQSGAEVKKPGSSVKVSCKASGGTFSSYAISWVRQAPGQGLEWMGGIIPIFGTASYAQKFQGRVTITADESTSTAYMELSSLRSEDTAVYYCARQSTWHKLYGTDVWGQGTTVTVSS
VL: DIQMTQSPSSVSASVGDRVTITCRASQGISSWLAWYQQKPGKAPKLLIYAASSLQSGVPSRFSGSGSGTDFTLTISSLQPEDFATYYCQQGDSLPPTFGGGTKVEIK
notes: Fully human IgG produced in yeast
B4: Clone 25 (antibody, V domains shown)
VH: QVQLVQSGAEVKKPGASVKVSCKASGYTFTSYAISWVRQAPGQGLEWMGWISAYNGNTNYAQKLQGRVTMTTDTSTSTAYMELRSLRSDDTAVYYCARDLSSFWSGDVLGAFDIWGQGTMVTVSS
VL: DIQMTQSPSSLSASVGDRVTITCRASQSISSYLNWYQQKPGKAPKLLIYAASSLQSGVPSRFSGSGSGTDFTLTISSLQPEDFATYYCQQSVPPRTFGGGTKVEIK
notes: Fully human IgG produced in yeast; also called anti-TIGIT clone 25
B5: Clone 54 (antibody, V domains shown)
VH: QVQLVQSGAEVKKPGASVKVSCKASGYTFTSYYMHWVRQAPGQGLEWMGIINPSGGSTSYAQKFQGRVTMTRDTSTSTVYMELSSLRSEDTAVYYCARASDSYGVGLYYGMDVWGQGTTVTVSS
VL: B1 VL with S30R, A92Y, V93Y, P94V
notes: as for B3
B6: anti-TIGIT clone 13 mIgG1 (antibody)
heavy: QVQLVQSGAEVKKPGSSVKVSCKASGGTFSSYAISWVRQAPGQGLEWMGSIIPIFGTANYAQKFQGRVTITADESTSTAYMELSSLRSEDTAVYYCARGPSEVGAILGYVWFDPWGQGTLVTVSSAKTTPPSVYPLAPGSAAQTNSMVTLGCLVKGYFPEPVTVTWNSGSLSSGVHTFPAVLESDLYTLSSSVTVPSSPRPSETVTCNVAHPASSTKVDKKIVPRDCGCKPCICTVPEVSSVFIFPPKPKDVLTITLTPKVTCVVVDISKDDPEVQFSWFVDDVEVHTAQTQPREEQFNSTFRSVSELPIMHQDWLNGKEFKCRVNSAAFPAPIEKTISKTKGRPKAPQVYTIPPPKEQMAKDKVSLTCMITDFFPEDITVEWQWNGQPAENYKNTQPIMNTNGSYFVYSKLNVQKSNWEAGNTFTCSVLHEGLHNHHTEKSLSHSPGK
light: not shown
notes: also called c13 mIgG1; 13-1
B7: Clone 27 (antibody, V domains shown)
VH: B4 VH
VL: EIVMTQSPATLSVSPGERATLSCRASQSVSSNLAWYQQKPGQAPRLLIYGASTRATGIPARFSGSGSGTEFTLTISSLQSEDFAVYYCQQHANHITFGGGTKVEIK
notes: as for B3
B8: Clone 3 (antibody, V domains shown)
VH: B1 VH
VL: EIVLTQSPGTLSLSPGERATLSCRASQSVRSSYLAWYQQKPGQAPRLLIYGASSRATGIPDRFSGSGSGTDFTLTISRLEPEDFAVYYCQQVGPPLTFGGGTKVEIK
notes: as for B3
B9: anti-TIGIT c13 mIgG2a LALA-PG (antibody)
heavy chain: QVQLVQSGAEVKKPGSSVKVSCKASGGTFSSYAISWVRQAPGQGLEWMGSIIPIFGTANYAQKFQGRVTITADESTSTAYMELSSLRSEDTAVYYCARGPSEVGAILGYVWFDPWGQGTLVTVSSAKTTAPSVYPLAPVCGDTTGSSVTLGCLVKGYFPEPVTLTWNSGSLSSGVHTFPAVLQSDLYTLSSSVTVTSSTWPSQSITCNVAHPASSTKVDKKIEPRGPTIKPCPPCKCPAPNAAGGPSVFIFPPKIKDVLMISLSPIVTCVVVDVSEDDPDVQISWFVNNVEVHTAQTQTHREDYNSTLRVVSALPIQHQDWMSGKEFKCKVNNKDLGAPIERTISKPKGSVRAPQVYVLPPPEEEMTKKQVTLTCMVTDFMPEDIYVEWTNNGKTELNYKNTEPVLDSDGSYFMYSKLRVEKKNWVERNSYSCSVVHEGLHNHHTTKSFSRTPGK
light chain: not shown
notes: also called LALA TIGIT

The binders below were run against T1, human TIGIT expressed on cells (assay: flow cytometry titration, HEK 293 cells expressing human TIGIT).
Description: (§1) HEK 293 cells were engineered to stably express high levels of human, mouse or cynomolgus monkey TIGIT by lentiviral transduction. […] Samples were analyzed on a CytoFLEX flow cytometer. Median fluorescence intensity of the FSC/SSC gated population was determined for each antibody concentration. NonLinear regression of Log(X) transformed data was used to generate EC50 values in GraphPad Prism 6.

Row | Binder | EC50 [µg/mL]
1 | B1 | 0.15
2 | B2 | 0.07
3 | B3 | 0.07
4 | B4 | 0.14
5 | B5 | 0.11

Each binder was assayed against T2, monomeric human TIGIT (Sino Biological …) (assay: BLI (ForteBio), IgG on sensor, monovalent).
Description: (§2) Briefly, ForteBio affinity measurements were performed by loading IgGs on-line onto AHQ sensors. Sensors were equilibrated off-line in assay buffer for 30 minutes and then monitored on-line for 60 seconds for baseline establishment. Sensors with loaded IgGs were exposed to 100 nM antigen (dimeric Fc-fusion antigen or monomeric antigen) for 3 minutes, and afterwards were transferred to assay buffer for 3 minutes for off-rate measurement. All binding and dissociation kinetics were analyzed using the 1:1 binding model.
The optimized antibodies were also tested for ligand blocking in a CD155 ligand competition assay, and for binding to human TIGIT HEK, cyno TIGIT HEK, mouse TIGIT HEK, and parental HEK cell lines, as described above.

Row | Binder | Kd [nM]
6 | B1 | 8.18
7 | B2 | 2.63
8 | B3 | 2.52
9 | B4 | 1.27

Each binder was assayed against T1, human TIGIT expressed on cells (assay: flow cytometry competition with hCD112-Fc-AlexaFluor647 on 293-hTIGIT cells; the axis 'Percent Blockade' falls as ligand signal is lost).
Description: (§3) Samples were analyzed on a CytoFLEX flow cytometer. Median fluorescence intensity of the FSC/SSC gated population was determined for each antibody concentration. Percent blockade was calculated relative to the MFI of the no antibody control. NonLinear regression of Log(X) transformed data was performed in GraphPad Prism 6.

Row | Binder | IC50 (read off the curve) [µg/mL]
10 | B2 | ~0.1

What follows are binders tested against T1, human TIGIT expressed on cells (assay: flow cytometry competition with human CD112-Fc on 293-hTIGIT cells).

Row | Binder | IC50 (read off the curve) [µg/mL]
11 | B2 | ~0.1
12 | B6 | ~0.04

Target: T1, human TIGIT expressed on cells
Assay: flow cytometry titration, HEK 293 cells expressing human TIGIT
Remark: another data set of the same source

Row | Binder | EC50 [µg/mL]
13 | B2 | 0.09
14 | B6 | 0.05

What follows are binders tested against T5, cyno TIGIT-Fc (cynomolgus monkey) (assay: BLI (ForteBio), IgG on sensor, avid).
T5 construct: not shown: Fc part
T5 sequence (chain, as listed by the source limits assumed): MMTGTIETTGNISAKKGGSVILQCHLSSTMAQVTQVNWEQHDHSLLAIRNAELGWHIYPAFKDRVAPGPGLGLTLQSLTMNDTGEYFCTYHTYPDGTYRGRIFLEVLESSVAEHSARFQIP

Row | Binder | Kd [nM]
15 | B1 | 1.34
16 | B2 | 1.04
17 | B3 | 4.67
18 | B4 | 1.5

The binders below were run against T3, recombinant dimeric human TIGIT-Fc … (assay: BLI (ForteBio Octet RED384), IgG on AHQ sensor, 100 nM antigen, 1:1 model).
Description: as §2

Row | Binder | Kd [nM]
19 | B1 | 0.956
20 | B2 | 0.543
21 | B3 | 0.69
22 | B4 | 0.62
23 | B5 | 0.689
24 | B7 | 0.558
25 | B8 | 2.77

These binders were tested against T2, monomeric human TIGIT (Sino Biological …) in the same assay as above.
Description: as §2

Row | Binder | Kd [nM]
26 | B1 | 10.1
27 | B2 | 2.56
28 | B3 | 2.06
29 | B4 | 0.618
30 | B5 | 3.49
31 | B7 | 2.32
32 | B8 | 73.6

Each binder was assayed against T6, cynomolgus monkey TIGIT expressed on cells (cynomolgus monkey) (assay: flow cytometry titration, HEK 293 cells expressing cynomolgus TIGIT).
T6 construct: HEK 293 cells stably expressing cynomolgus monkey TIGIT or cynomolgus T cells; also called Cyno TIGIT HEK
T6 sequence (chain, as listed by the source limits assumed): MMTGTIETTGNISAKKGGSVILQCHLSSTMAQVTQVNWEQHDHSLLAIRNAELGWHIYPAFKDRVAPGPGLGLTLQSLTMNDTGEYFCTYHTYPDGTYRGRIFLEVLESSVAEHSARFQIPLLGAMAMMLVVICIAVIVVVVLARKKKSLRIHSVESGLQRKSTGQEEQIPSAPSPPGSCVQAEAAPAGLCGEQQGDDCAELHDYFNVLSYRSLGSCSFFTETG

Row | Binder | EC50 [µg/mL]
33 | B2 | 0.13
34 | B6 | 0.07

Target: T6, cynomolgus monkey TIGIT expressed on …
Assay: as above
Remark: another data set of the same source
Description: as §1

Row | Binder | EC50 [µg/mL]
35 | B1 | 0.32
36 | B2 | 0.1
37 | B3 | 0.1
38 | B4 | 0.19
39 | B5 | 11.4

These binders were tested against T1, human TIGIT expressed on cells (assay: flow cytometry on HEK 293 cells expressing the target, MFI over parental HEK 293;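 also: bound antibody detected with PE-labelled anti-human IgG, 15 min on ice. FOB equals median fluorescence on TIGIT-positive cells divided by that on target-negative cells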).
Description: (§4) HEK 293 cells were engineered to stably express high levels of human, mouse or cynomolgus monkey TIGIT by lentiviral transduction. […] Cells were then washed twice with wash buffer and incubated with anti-human IgG conjugated to PE for 15 minutes on ice. Cells were then washed twice with wash buffer and analyzed by flow cytometry on a FACS Canto II instrument (BD Biosciences). Fold over background (FOB) was calculated as the median fluorescence intensity (MFI) of the anti-TIGIT clone bound to target-positive cells divided by the MFI of the anti-TIGIT clone bound to target-negative cells.

Row | Binder | FOB (Fold Over Background) [fold]
40 | B1 | 158
41 | B2 | 212
42 | B3 | 192
43 | B4 | 205

The binders below were run against T6, cynomolgus monkey TIGIT expressed on … in the same assay as above.
Description: as §4

Row | Binder | FOB (Fold Over Background) [fold]
44 | B1 | 162
45 | B2 | 224
46 | B3 | 27
47 | B4 | 247

What follows are binders tested against T1, human TIGIT expressed on cells (assay: flow cytometry competition with human CD155-Fc on 293-hTIGIT cells).

Row | Binder | IC50 (read off the curve) [µg/mL]
48 | B2 | ~0.1
49 | B6 | ~0.1

The binders below were run against T1, human TIGIT expressed on cells (assay: flow cytometry competition with hCD155-Fc-AlexaFluor647 on 293-hTIGIT cells; the axis 'Percent Blockade' falls as ligand signal is lost).
Description: as §3

Row | Binder | IC50 (read off the curve) [µg/mL]
50 | B2 | ~0.1

What follows are binders tested against T4, murine FcγRIV expressed on CHO cells (assay: flow cytometry on CHO cells expressing mCD16 (murine FcγRIV), anti-mouse IgG FITC).
Description: To assess the extent of altered FcγRIV binding, antibody affinity to FcγRIV expressed on CHO cells was determined by FACS using anti-mouse IgG FITC.

Row | Binder | Kd [nM]
51 | B9 | 3330
